Assay results from PMC9352680, “A comprehensive thermodynamic model for RNA binding by the Saccharomyces cerevisiae Pumilio protein PUF4”.

T1: PUF4 RNA-binding domain (Saccharomyces cerevisiae, UniProt P25339 537-888)
T1 sequence: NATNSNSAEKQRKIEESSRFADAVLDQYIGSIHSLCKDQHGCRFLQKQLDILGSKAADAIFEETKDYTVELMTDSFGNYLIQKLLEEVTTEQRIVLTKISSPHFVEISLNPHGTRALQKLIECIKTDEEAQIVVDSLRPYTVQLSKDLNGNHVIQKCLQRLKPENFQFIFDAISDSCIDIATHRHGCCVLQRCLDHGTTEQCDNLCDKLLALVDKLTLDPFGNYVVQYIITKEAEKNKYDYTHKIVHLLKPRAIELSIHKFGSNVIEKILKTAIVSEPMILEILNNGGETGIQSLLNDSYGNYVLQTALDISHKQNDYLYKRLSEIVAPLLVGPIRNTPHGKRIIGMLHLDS


What follows are binders tested against T1, PUF4 RNA-binding domain (assay: Mg; RNA-MaP; 20 mM Na-HEPES pH 7.4, 30 mM KOAc, 0.75 mM MgCl2, 0.1% Tween-20, 5% glycerol, 0.1 mg/mL BSA, 2 mM DTT; 25 C; 0.0125-409.6 nM protein). Settings: tags: N-His6-TEV cleaved; C-SNAP kept, Cy3B-labelled; label: tethered on chip by stalled RNA polymerase.

With UCUCUUUGUACACGGUCUCUU (ssRNA) [Ic_S1_P4E.1_K4.1_C4.1_H4.1_A4.1_[T5C]_[T7C]_F4.1_[T8G]_[A9G]_T4.1] as the binder, how does the Kd read?
The Kd was 468 nM.

Which Kd does the source give for UCUCUUUGUACCAAAUCUCUU (ssRNA) [Ic_S1_P4E.1_K4.1_C4.1_H4.1_A4.1_[T5C]_[A6C]_[T7A]_F4.1_[T8A]_T4.1] here?
The Kd was 68 nM.

For UCUCUUUGUACUGGUUCUCUU (ssRNA) [Ic_S1_P4E.1_K4.1_C4.1_H4.1_A4.1_[T5C]_[A6T]_[T7G]_F4.1_[T8G]_[A9T]_T4.1], which Kd is on record?
The Kd was 732 nM.

For UCUCUUUGUACUUAGUCUCUU (ssRNA) [Ic_S1_P4E.1_K4.1_C4.1_H4.1_A4.1_[T5C]_[A6T]_F4.1_[T8A]_[A9G]_T4.1], which Kd is on record?
The Kd was 43 nM.

For UCUCUUUGUACAGCGUCUCUU (ssRNA) [Ic_S1_P4E.1_K4.1_C4.1_H4.1_A4.1_[T5C]_[T7G]_F4.1_[T8C]_[A9G]_T4.1], which Kd is on record?
Its Kd is 112 nM.

How did the Kd turn out when UCUCUUUGUACCAUUUCUCUU (ssRNA) [Ic_S1_P4E.1_K4.1_C4.1_H4.1_A4.1_[T5C]_[A6C]_[T7A]_F4.1_[A9T]_T4.1] was run?
Its Kd is 9.07 nM.

Which Kd does the source give for UCUCUUUGUACUUCGUCUCUU (ssRNA) [Ic_S1_P4E.1_K4.1_C4.1_H4.1_A4.1_[T5C]_[A6T]_F4.1_[T8C]_[A9G]_T4.1] here?
The Kd was 424 nM.

For UCUCUUUGUACUAAAUCUCUU (ssRNA) [Ic_S1_P4E.1_K4.1_C4.1_H4.1_A4.1_[T5C]_[A6T]_[T7A]_F4.1_[T8A]_T4.1], which Kd is on record?
Its Kd is 69.7 nM.

How did the Kd turn out when UCUCUUUGUACCACCUCUCUU (ssRNA) [Ic_S1_P4E.1_K4.1_C4.1_H4.1_A4.1_[T5C]_[A6C]_[T7A]_F4.1_[T8C]_[A9C]_T4.1] was run?
Its Kd is 573 nM.

For UCUCUUUGUACUAUAUCUCUU (ssRNA) [Ic_S1_P4E.1_K4.1_C4.1_H4.1_A4.1_[T5C]_[A6T]_[T7A]_F4.1_T4.1], which Kd is on record?
The Kd was 1.28 nM.

With UCUCUUUGUACUAUCUCUCUU (ssRNA) [Ic_S1_P4E.1_K4.1_C4.1_H4.1_A4.1_[T5C]_[A6T]_[T7A]_F4.1_[A9C]_T4.1] as the binder, how does the Kd read?
The Kd was 13.8 nM.

For UCUCUUUGUACUUAUUCUCUU (ssRNA) [Ic_S1_P4E.1_K4.1_C4.1_H4.1_A4.1_[T5C]_[A6T]_F4.1_[T8A]_[A9T]_T4.1], which Kd is on record?
The Kd was 34.1 nM.

For UCUCUUUGUACUAGCUCUCUU (ssRNA) [Ic_S1_P4E.1_K4.1_C4.1_H4.1_A4.1_[T5C]_[A6T]_[T7A]_F4.1_[T8G]_[A9C]_T4.1], which Kd is on record?
The Kd was 643 nM.

How did the Kd turn out when UCUCUUUGUACUAACUCUCUU (ssRNA) [Ic_S1_P4E.1_K4.1_C4.1_H4.1_A4.1_[T5C]_[A6T]_[T7A]_F4.1_[T8A]_[A9C]_T4.1] was run?
The Kd was 330 nM.

With UCUCUUUGUACUUUCUCUCUU (ssRNA) [Ic_S1_P4E.1_K4.1_C4.1_H4.1_A4.1_[T5C]_[A6T]_F4.1_[A9C]_T4.1] as the binder, how does the Kd read?
The Kd was 39.6 nM.

With UCUCUUUGUACUACCUCUCUU (ssRNA) [Ic_S1_P4E.1_K4.1_C4.1_H4.1_A4.1_[T5C]_[A6T]_[T7A]_F4.1_[T8C]_[A9C]_T4.1] as the binder, how does the Kd read?
The Kd was 478 nM.

For UCUCUUUGUACUGUGUCUCUU (ssRNA) [Ic_S1_P4E.1_K4.1_C4.1_H4.1_A4.1_[T5C]_[A6T]_[T7G]_F4.1_[A9G]_T4.1], which Kd is on record?
Its Kd is 50.5 nM.

For UCUCUUUGUACCAUGUCUCUU (ssRNA) [Ic_S1_P4E.1_K4.1_C4.1_H4.1_A4.1_[T5C]_[A6C]_[T7A]_F4.1_[A9G]_T4.1], which Kd is on record?
The Kd was 3.4 nM.

How did the Kd turn out when UCUCUUUGUACUCAUUCUCUU (ssRNA) [Ic_S1_P4E.1_K4.1_C4.1_H4.1_A4.1_[T5C]_[A6T]_[T7C]_F4.1_[T8A]_[A9T]_T4.1] was run?
The Kd was 150 nM.

Which Kd does the source give for UCUCUUUGUACUUUUUCUCUU (ssRNA) [Ic_S1_P4E.1_K4.1_C4.1_H4.1_A4.1_[T5C]_[A6T]_F4.1_[A9T]_T4.1] here?
The Kd was 19.2 nM.

Which Kd does the source give for UCUCUUUGUACCACGUCUCUU (ssRNA) [Ic_S1_P4E.1_K4.1_C4.1_H4.1_A4.1_[T5C]_[A6C]_[T7A]_F4.1_[T8C]_[A9G]_T4.1] here?
Its Kd is 652 nM.

For UCUCUUUGUACCAACUCUCUU (ssRNA) [Ic_S1_P4E.1_K4.1_C4.1_H4.1_A4.1_[T5C]_[A6C]_[T7A]_F4.1_[T8A]_[A9C]_T4.1], which Kd is on record?
The Kd was 271 nM.

How did the Kd turn out when UCUCUUUGUACUUCUUCUCUU (ssRNA) [Ic_S1_P4E.1_K4.1_C4.1_H4.1_A4.1_[T5C]_[A6T]_F4.1_[T8C]_[A9T]_T4.1] was run?
The Kd was 75.2 nM.

Which Kd does the source give for UCUCUUUGUACCUACUCUCUU (ssRNA) [Ic_S1_P4E.1_K4.1_C4.1_H4.1_A4.1_[T5C]_[A6C]_F4.1_[T8A]_[A9C]_T4.1] here?
Its Kd is 56.6 nM.

For UCUCUUUGUACUGCAUCUCUU (ssRNA) [Ic_S1_P4E.1_K4.1_C4.1_H4.1_A4.1_[T5C]_[A6T]_[T7G]_F4.1_[T8C]_T4.1], which Kd is on record?
Its Kd is 668 nM.

Which Kd does the source give for UCUCUUUGUACUUGCUCUCUU (ssRNA) [Ic_S1_P4E.1_K4.1_C4.1_H4.1_A4.1_[T5C]_[A6T]_F4.1_[T8G]_[A9C]_T4.1] here?
The Kd was 414 nM.

UCUCUUUGUACUGUAUCUCUU (ssRNA) [Ic_S1_P4E.1_K4.1_C4.1_H4.1_A4.1_[T5C]_[A6T]_[T7G]_F4.1_T4.1] was tested. Which Kd did it give?
The Kd was 5.91 nM.

UCUCUUAGUAUAUGUCUCUU (ssRNA) [Ib_S1_P3E.1_K3.1_C3.1_H3.1_[T1A]_A3.1_F3.1_[A8G]_T3.1] was tested. Which Kd did it give?
The Kd was over 2300 nM.

With UCUCUUUGUACCUGUUCUCUU (ssRNA) [Ic_S1_P4E.1_K4.1_C4.1_H4.1_A4.1_[T5C]_[A6C]_F4.1_[T8G]_[A9T]_T4.1] as the binder, how does the Kd read?
Its Kd is 94 nM.

How did the Kd turn out when UCUCUUUGUACUCUAUCUCUU (ssRNA) [Ic_S1_P4E.1_K4.1_C4.1_H4.1_A4.1_[T5C]_[A6T]_[T7C]_F4.1_T4.1] was run?
Its Kd is 3.48 nM.

With UCUCUUUGUACCUAAUCUCUU (ssRNA) [Ic_S1_P4E.1_K4.1_C4.1_H4.1_A4.1_[T5C]_[A6C]_F4.1_[T8A]_T4.1] as the binder, how does the Kd read?
Its Kd is 66.3 nM.

Which Kd does the source give for UCUCUUUGUACUCACUCUCUU (ssRNA) [Ic_S1_P4E.1_K4.1_C4.1_H4.1_A4.1_[T5C]_[A6T]_[T7C]_F4.1_[T8A]_[A9C]_T4.1] here?
The Kd was 1060 nM.

With UCUCUUUGUACUCCGUCUCUU (ssRNA) [Ic_S1_P4E.1_K4.1_C4.1_H4.1_A4.1_[T5C]_[A6T]_[T7C]_F4.1_[T8C]_[A9G]_T4.1] as the binder, how does the Kd read?
Its Kd is 969 nM.
